Measured values published in publication PMC3121528 (The Journal of Biological Chemistry, 2011).

What was measured:
[1] = molecular target: FLAG-tagged B14 F130K (vaccinia virus strain Western Reserve) (UniProt P24772); experiment: co-IP
[2] = molecular target: FLAG-tagged B14 Y35E (vaccinia virus strain Western Reserve), P24772; experiment: co-IP; details: remark: other sources report otherwise
[3] = molecular target: the molecule itself; experiment: SEC-MALS

N-terminally HA-tagged IκB kinase β (IKKβ) (from UniProt O14920 1-756) (enzyme)
co-precipitated IKKβ relative to wild-type B14 (% of wild-type B14) [1]: 1

B1: N-terminally HA-tagged IκB kinase β (IKKβ), O14920 1-756 (enzyme)
chain: MSWSPSLTTQTCGAWEMKERLGTGGFGNVIRWHNQETGEQIAIKQCRQELSPRNRERWCLEIQIMRRLTHPNVVAARDVPEGMQNLAPNDLPLLAMEYCQGGDLRKYLNQFENCCGLREGAILTLLSDIASALRYLHENRIIHRDLKPENIVLQQGEQRLIHKIIDLGYAKELDQGSLCTSFVGTLQYLAPELLEQQKYTVTVDYWSFGTLAFECITGFRPFLPNWQPVQWHSKVRQKSEVDIVVSEDLNGTVKFSSSLPYPNNLNSVLAERLEKWLQLMLMWHPRQRGTDPTYGPNGCFKALDDILNLKLVHILNMVTGTIHTYPVTEDESLQSLKARIQQDTGIPEEDQELLQEAGLALIPDKPATQCISDGKLNEGHTLDMDLVFLFDNSKITYETQISPRPQPESVSCILQEPKRNLAFFQLRKVWGQVWHSIQTLKEDCNRLQQGQRAAMMNLLRNNSCLSKMKNSMASMSQQLKAKLDFFKTSIQIDLEKYSEQTEFGITSDKLLLAWREMEQAVELCGRENEVKLLVERMMALQTDIVDLQRSPMGRKQGGTLDDLEEQARELYRRLREKPRDQRTEGDSQEMVRLLLQAIQSFEKKVRVIYTQLSKTVVCKQKALELLPKVEEVVSLMNEDEKTVVRLQEKRQKELWNLLKIACSKVRGPVSGSPDSMNASRLSQPGQLMSQPSTASNSLPEPAKKSEELVAEAHNLCTLLENAIQDTVREQDQSFTALDWSWLQTEEEEHSCLEQAS
co-precipitated IKKβ relative to wild-type B14 (fold of wild-type B14) [2]: 0.5

B2: N-terminally His6-tagged wild-type B14 (vaccinia virus strain Western Reserve) (natural protein)
chain: MTANFSTHVFSPQHCGCDRLTSIDDVRQCLTEYIYWSSYAYRNRQCAGQLYSTLLSFRDDAELVFIDIRELVKNMPWDDVKDCAEIIRCYIPDEQKTIREISAIIGLCAYAATYWGGEDHPTSNSLNALFVMLEMLNYVDYNIIFRRMN
Kd [3]: 20.6 ± 0.9 µM | stoichiometry N [3]: 2
